Laboratory results published in publication PMC3960148, “Atypical Response Regulator ChxR from Chlamydia trachomatis Is Structurally Poised for DNA Binding” (PLoS ONE, 2014).

B1: full-length ChxR (natural protein, Chlamydia trachomatis, UniProt A0A0H3MDW1 1-227, looked up)
chain: MAGPKHVLLVSEHWDLFFQTKELLNPEEYRCTIGQQYKQELSADLVVCEYSLLPREIRSPKSLEGSFVLVLLDFFDEETSVDLLDRGFWYLIRPITPRILKSAISLFLSQHSLHSVPESIRFGPNVFYVLKLTVETPEGSVHLTPSESGILKRLLINKGQLCLRKHLLEEIKNHAKAIVARNVDVHIASLRKKLGAYGSRIVTLRGVGYLFSDDGDKKFSQQDTKLS
notes: ChxR, atypical OmpR/PhoB subfamily response regulator of Chlamydia trachomatis, full length; The calculated MW of the dimer is ~56 kDa; also called wild-type ChxR; not shown: His-tag (24 residues), N-terminal, kept
B2: full-length ChxR with Ala substitution of Lys192 (natural protein)
chain: MAGPKHVLLVSEHWDLFFQTKELLNPEEYRCTIGQQYKQELSADLVVCEYSLLPREIRSPKSLEGSFVLVLLDFFDEETSVDLLDRGFWYLIRPITPRILKSAISLFLSQHSLHSVPESIRFGPNVFYVLKLTVETPEGSVHLTPSESGILKRLLINKGQLCLRKHLLEEIKNHAKAIVARNVDVHIASLRAKLGAYGSRIVTLRGVGYLFSDDGDKKFSQQDTKLS
notes: ChxR of Chlamydia trachomatis, full-length protein with an Ala substitution; Made from the same plasmid as m1; also called Lys192 substitution; source: mutation introduced into the full-length ChxR plasmid (QuikChange II XL)
B3: full-length ChxR with Ala substitution of Asn182 (natural protein)
chain: MAGPKHVLLVSEHWDLFFQTKELLNPEEYRCTIGQQYKQELSADLVVCEYSLLPREIRSPKSLEGSFVLVLLDFFDEETSVDLLDRGFWYLIRPITPRILKSAISLFLSQHSLHSVPESIRFGPNVFYVLKLTVETPEGSVHLTPSESGILKRLLINKGQLCLRKHLLEEIKNHAKAIVARAVDVHIASLRKKLGAYGSRIVTLRGVGYLFSDDGDKKFSQQDTKLS
notes: ChxR of Chlamydia trachomatis, full-length protein with an Ala substitution; Made from the same plasmid as m1; also called Asn182 substitution; source: mutation introduced into the full-length ChxR plasmid (QuikChange II XL)
B4: full-length ChxR with Ala substitution of Arg205 (natural protein)
chain: MAGPKHVLLVSEHWDLFFQTKELLNPEEYRCTIGQQYKQELSADLVVCEYSLLPREIRSPKSLEGSFVLVLLDFFDEETSVDLLDRGFWYLIRPITPRILKSAISLFLSQHSLHSVPESIRFGPNVFYVLKLTVETPEGSVHLTPSESGILKRLLINKGQLCLRKHLLEEIKNHAKAIVARNVDVHIASLRKKLGAYGSRIVTLAGVGYLFSDDGDKKFSQQDTKLS
notes: ChxR of Chlamydia trachomatis, full-length protein with an Ala substitution; Made from the same plasmid as m1; also called Arg205 substitution; source: mutation introduced into the full-length ChxR plasmid (QuikChange II XL)
B5: ChxR^H186A (natural protein)
chain: MAGPKHVLLVSEHWDLFFQTKELLNPEEYRCTIGQQYKQELSADLVVCEYSLLPREIRSPKSLEGSFVLVLLDFFDEETSVDLLDRGFWYLIRPITPRILKSAISLFLSQHSLHSVPESIRFGPNVFYVLKLTVETPEGSVHLTPSESGILKRLLINKGQLCLRKHLLEEIKNHAKAIVARNVDVAIASLRKKLGAYGSRIVTLRGVGYLFSDDGDKKFSQQDTKLS
notes: ChxR of Chlamydia trachomatis, full-length protein with an Ala substitution; Made from the same plasmid as m1; also called His186 substitution; source: mutation introduced into the full-length ChxR plasmid (QuikChange II XL)

Columns and labels:
[1] = tested on: ChxR effector domain (ChxREff) (Chlamydia trachomatis); assay: EMSA; conditions: EMSA as in ref 17 (buffer, salt, pH, temperature not given); 1 nM IR800-DNA with 50 nM-10 uM ChxREff, triplicate; 44 uM full-length ChxR (wild type, H186A) in …
[2] = target: the molecule itself; assay: SAXS; full-length ChxR in solution at 1.25, 2.5 and 5.0 mg/ml, 20°C, 5% (v/v) glycerol added; curves extrapolated to infinite dilution; mass estimated from the Porod volume
[3] = target: the molecule itself; assay: SEC; proper folding of the full-length ChxR Ala mutants was assessed by size exclusion chromatography; the sentence on homodimers names no method

Row | Molecule | binding result [3] | also measured
1 | DR2 site of chxR promoter |  | Kd [1]: 450 nM
2 | B1 |  | stoichiometry N [2]: 2
3 | B2 | binds | 
4 | B3 | binds | 
5 | B4 | binds | 
6 | B5 | binds | 
